System: Escherichia coli TOP10
Assay: shrunken log2 fold change of peptide-encoding DNA abundance (4.5 h post-induction vs induction); higher = less antimicrobial activity (less host growth inhibition)
Details: time post-induction: 4.5 h; library: site-saturation at positions 5, 18, 19, 20
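Note: peptides expressed intracellularly from a pBAD plasmid library in pooled LB shake-flask culture, induced with 0.3% L-arabinose, DNA abundance read by NGS, three biological replicates, DESeq2 with apeglm shrinkage.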

Row | Sequence | shrunken log2 fold change
1 | RRIRKRPPRLPRPRPRPIWIPRP | -0.0325
2 | RRIRKRPPRLPRPRPRPIWSPRP | -0.0718
3 | RRIRKRPPRLPRPRPRPIYQPRP | -0.0246
4 | RRIRKRPPRLPRPRPRPIYTPRP | -0.0648
5 | RRIRKRPPRLPRPRPRPKCIPRP | 0.317
6 | RRIRKRPPRLPRPRPRPKFMPRP | -0.0124
7 | RRIRKRPPRLPRPRPRPKGSPRP | 0.436
8 | RRIRKRPPRLPRPRPRPKIAPRP | 0.35
9 | RRIRKRPPRLPRPRPRPKIFPRP | 0.0692
10 | RRIRKRPPRLPRPRPRPKKQPRP | -0.119
11 | RRIRKRPPRLPRPRPRPKKSPRP | 0.575
12 | RRIRKRPPRLPRPRPRPKLVPRP | 0.0448
13 | RRIRKRPPRLPRPRPRPKMMPRP | 0.421
14 | RRIRKRPPRLPRPRPRPKNNPRP | -0.047
15 | RRIRKRPPRLPRPRPRPKNWPRP | 0.474
16 | RRIRKRPPRLPRPRPRPKPEPRP | 0.781
17 | RRIRKRPPRLPRPRPRPKQCPRP | 0.0637
18 | RRIRKRPPRLPRPRPRPKSAPRP | 0.656
19 | RRIRKRPPRLPRPRPRPKSMPRP | 0.375
20 | RRIRKRPPRLPRPRPRPKTHPRP | 0.4
21 | RRIRKRPPRLPRPRPRPKVSPRP | -0.0412
22 | RRIRKRPPRLPRPRPRPKYQPRP | 0.0989
23 | RRIRKRPPRLPRPRPRPLAGPRP | 0.286
24 | RRIRKRPPRLPRPRPRPLALPRP | 0.536
25 | RRIRKRPPRLPRPRPRPLCGPRP | 0.367

Row | Sequence | shrunken log2 fold change
26 | RRIRKRPPRLPRPRPRPLCLPRP | -0.126
27 | RRIRKRPPRLPRPRPRPLFCPRP | 0.177
28 | RRIRKRPPRLPRPRPRPLFHPRP | 0.0214
29 | RRIRKRPPRLPRPRPRPLGWPRP | 1.11
30 | RRIRKRPPRLPRPRPRPLHEPRP | 1.06
31 | RRIRKRPPRLPRPRPRPLHHPRP | 0.141
32 | RRIRKRPPRLPRPRPRPLHVPRP | 0.0446
33 | RRIRKRPPRLPRPRPRPLISPRP | 0.0452
34 | RRIRKRPPRLPRPRPRPLKIPRP | 2.15
35 | RRIRKRPPRLPRPRPRPLKWPRP | 0.18
36 | RRIRKRPPRLPRPRPRPLLCPRP | 0.347
37 | RRIRKRPPRLPRPRPRPLMFPRP | 0.0317
38 | RRIRKRPPRLPRPRPRPLNGPRP | 0.0417
39 | RRIRKRPPRLPRPRPRPLPFPRP | -0.11
40 | RRIRKRPPRLPRPRPRPLPQPRP | 0.729
41 | RRIRKRPPRLPRPRPRPLPTPRP | 0.491
42 | RRIRKRPPRLPRPRPRPLQEPRP | 0.0634
43 | RRIRKRPPRLPRPRPRPLSCPRP | 0.0262
44 | RRIRKRPPRLPRPRPRPLTWPRP | 0.13
45 | RRIRKRPPRLPRPRPRPLWLPRP | 0.377
46 | RRIRKRPPRLPRPRPRPLWSPRP | -0.014
47 | RRIRKRPPRLPRPRPRPLWYPRP | -0.511
48 | RRIRKRPPRLPRPRPRPLYHPRP | -0.364
49 | RRIRKRPPRLPRPRPRPLYWPRP | 0.149
50 | RRIRKRPPRLPRPRPRPMEFPRP | -0.00102

Row | Sequence | shrunken log2 fold change
51 | RRIRKRPPRLPRPRPRPMFCPRP | 0.0792
52 | RRIRKRPPRLPRPRPRPMFMPRP | -0.116
53 | RRIRKRPPRLPRPRPRPMFSPRP | -0.0859
54 | RRIRKRPPRLPRPRPRPMGTPRP | 0.335
55 | RRIRKRPPRLPRPRPRPMHWPRP | 0.136
56 | RRIRKRPPRLPRPRPRPMHYPRP | -0.0252
57 | RRIRKRPPRLPRPRPRPMIGPRP | 0.0437
58 | RRIRKRPPRLPRPRPRPMKNPRP | 0.212
59 | RRIRKRPPRLPRPRPRPMKYPRP | -0.152
60 | RRIRKRPPRLPRPRPRPMLKPRP | 0.954
61 | RRIRKRPPRLPRPRPRPMMFPRP | -0.0431
62 | RRIRKRPPRLPRPRPRPMMHPRP | 0.0869
63 | RRIRKRPPRLPRPRPRPMMVPRP | 0.0826
64 | RRIRKRPPRLPRPRPRPMNNPRP | -0.0152
65 | RRIRKRPPRLPRPRPRPMPWPRP | 0.321
66 | RRIRKRPPRLPRPRPRPMSYPRP | -0.0167
67 | RRIRKRPPRLPRPRPRPMWSPRP | 0.123
68 | RRIRKRPPRLPRPRPRPNDGPRP | -0.0887
69 | RRIRKRPPRLPRPRPRPNDLPRP | -0.054
70 | RRIRKRPPRLPRPRPRPNEFPRP | -0.042
71 | RRIRKRPPRLPRPRPRPNEHPRP | 0.448
72 | RRIRKRPPRLPRPRPRPNFEPRP | 0.0868
73 | RRIRKRPPRLPRPRPRPNFNPRP | -0.0705
74 | RRIRKRPPRLPRPRPRPNFTPRP | 0.156
75 | RRIRKRPPRLPRPRPRPNIEPRP | 0.115

Row | Sequence | shrunken log2 fold change
76 | RRIRKRPPRLPRPRPRPNIHPRP | -0.112
77 | RRIRKRPPRLPRPRPRPNIIPRP | 0.00713
78 | RRIRKRPPRLPRPRPRPNIKPRP | -0.284
79 | RRIRKRPPRLPRPRPRPNISPRP | -0.102
80 | RRIRKRPPRLPRPRPRPNKPPRP | -0.0304
81 | RRIRKRPPRLPRPRPRPNLPPRP | 0.118
82 | RRIRKRPPRLPRPRPRPNLTPRP | -0.112
83 | RRIRKRPPRLPRPRPRPNNGPRP | -0.324
84 | RRIRKRPPRLPRPRPRPNPKPRP | 0.143
85 | RRIRKRPPRLPRPRPRPNPNPRP | 0.179
86 | RRIRKRPPRLPRPRPRPNPTPRP | 0.249
87 | RRIRKRPPRLPRPRPRPNQTPRP | 0.00514
88 | RRIRKRPPRLPRPRPRPNQYPRP | -0.0702
89 | RRIRKRPPRLPRPRPRPNRFPRP | -0.0658
90 | RRIRKRPPRLPRPRPRPNRPPRP | 0.0563
91 | RRIRKRPPRLPRPRPRPNVFPRP | 0.154
92 | RRIRKRPPRLPRPRPRPNWGPRP | 0.308
93 | RRIRKRPPRLPRPRPRPNYTPRP | -0.281
94 | RRIRKRPPRLPRPRPRPPASPRP | 0.424
95 | RRIRKRPPRLPRPRPRPPAYPRP | 0.417
96 | RRIRKRPPRLPRPRPRPPDPPRP | 0.889
97 | RRIRKRPPRLPRPRPRPPFYPRP | 0.229
98 | RRIRKRPPRLPRPRPRPPGVPRP | 0.548
99 | RRIRKRPPRLPRPRPRPPIDPRP | 0.185
100 | RRIRKRPPRLPRPRPRPPKLPRP | 0.658

Row | Sequence | shrunken log2 fold change
101 | RRIRKRPPRLPRPRPRPPKYPRP | -0.0749
102 | RRIRKRPPRLPRPRPRPPLFPRP | 0.321
103 | RRIRKRPPRLPRPRPRPPMDPRP | 0.587
104 | RRIRKRPPRLPRPRPRPPMFPRP | 0.269
105 | RRIRKRPPRLPRPRPRPPMWPRP | 0.297
106 | RRIRKRPPRLPRPRPRPPNCPRP | 0.0388
107 | RRIRKRPPRLPRPRPRPPNHPRP | 0.33
108 | RRIRKRPPRLPRPRPRPPNPPRP | 0.657
109 | RRIRKRPPRLPRPRPRPPPYPRP | 0.249
110 | RRIRKRPPRLPRPRPRPPQHPRP | 0.5
111 | RRIRKRPPRLPRPRPRPPQTPRP | 0.559
112 | RRIRKRPPRLPRPRPRPPRKPRP | 0.821
113 | RRIRKRPPRLPRPRPRPPRPPRP | 1.34
114 | RRIRKRPPRLPRPRPRPPSEPRP | 0.413
115 | RRIRKRPPRLPRPRPRPPSRPRP | 0.772
116 | RRIRKRPPRLPRPRPRPPSSPRP | 0.263
117 | RRIRKRPPRLPRPRPRPPTVPRP | 0.266
118 | RRIRKRPPRLPRPRPRPPVKPRP | 0.181
119 | RRIRKRPPRLPRPRPRPPWRPRP | 0.734
120 | RRIRKRPPRLPRPRPRPPWYPRP | 0.131
121 | RRIRKRPPRLPRPRPRPQAEPRP | 0.0754
122 | RRIRKRPPRLPRPRPRPQCEPRP | -0.0553
123 | RRIRKRPPRLPRPRPRPQCFPRP | -0.0263
124 | RRIRKRPPRLPRPRPRPQCGPRP | 0.0718
125 | RRIRKRPPRLPRPRPRPQDCPRP | -0.104

Row | Sequence | shrunken log2 fold change
126 | RRIRKRPPRLPRPRPRPQDLPRP | -0.000826
127 | RRIRKRPPRLPRPRPRPQEQPRP | 0.225
128 | RRIRKRPPRLPRPRPRPQETPRP | -0.0167
129 | RRIRKRPPRLPRPRPRPQHGPRP | 0.205
130 | RRIRKRPPRLPRPRPRPQHLPRP | 0.0344
131 | RRIRKRPPRLPRPRPRPQKLPRP | 0.015
132 | RRIRKRPPRLPRPRPRPQMPPRP | 0.0482
133 | RRIRKRPPRLPRPRPRPQQCPRP | -0.371
134 | RRIRKRPPRLPRPRPRPQQIPRP | -0.248
135 | RRIRKRPPRLPRPRPRPQQQPRP | -0.0131
136 | RRIRKRPPRLPRPRPRPQQYPRP | 0.183
137 | RRIRKRPPRLPRPRPRPQRIPRP | 0.0286
138 | RRIRKRPPRLPRPRPRPQSGPRP | 0.149
139 | RRIRKRPPRLPRPRPRPQSLPRP | -0.017
140 | RRIRKRPPRLPRPRPRPQTMPRP | 0.0588
141 | RRIRKRPPRLPRPRPRPQVIPRP | 0.108
142 | RRIRKRPPRLPRPRPRPQVMPRP | -0.162
143 | RRIRKRPPRLPRPRPRPRAFPRP | 0.326
144 | RRIRKRPPRLPRPRPRPRCDPRP | 0.288
145 | RRIRKRPPRLPRPRPRPREAPRP | 1.44
146 | RRIRKRPPRLPRPRPRPREMPRP | -0.0629
147 | RRIRKRPPRLPRPRPRPRGQPRP | 0.648
148 | RRIRKRPPRLPRPRPRPRGRPRP | 1.04
149 | RRIRKRPPRLPRPRPRPRIHPRP | -0.0869
150 | RRIRKRPPRLPRPRPRPRKEPRP | 0.015
